Experimental data as given in the RNAGym collection of RNA variant scans (doi:10.7554/elife.80360).

B1: Hairpin Ribozyme (parent)
chain: GUCCUCUUUCACGUGCGCGUGAAAGAGAGAAGUGAACCAGAGAAACACACGUUGUGGUAUAUUACCUGGUA

Variants of: B1
Assay: self-cleavage, relative activity (ratio to wild type); higher = more cleavage; co-transcriptional
Work on A24C G57U yielded a self-cleavage of 0.14.
In the case of A24U A44C, the self-cleavage is reported as 0.252.
For A24U A44G, the self-cleavage was 0.119.
Variant A24U G27U has a self-cleavage of 0.199.
A23U A71G showed a self-cleavage of 0.876.
For A23C U63G, the self-cleavage was 0.273.
With A23C U63A the self-cleavage was 0.238.
For A24U C48G, the self-cleavage was 0.245.
A24U G68U gave a self-cleavage of 0.22.
A23C U55G gave a self-cleavage of 0.359.
Work on A23C U55A yielded a self-cleavage of 0.17.
A23U C46G showed a self-cleavage of 0.0441.
For A23U C46A, the self-cleavage was 0.224.
A23U C38U gave a self-cleavage of 0.312.
For A24U G56A, the self-cleavage was 0.212.
A24C A31G showed a self-cleavage of 0.66.
Variant G25A C66G has a self-cleavage of 0.133.
Variant A24C G34A has a self-cleavage of 0.895.
For G25C G32C, the self-cleavage was 0.116.
With A23U U33C the self-cleavage was 0.144.
With A24C U67G the self-cleavage was 0.27.
For A24C U67A, the self-cleavage was 0.185.
In the case of G25A G32A, the self-cleavage is reported as 0.216.
With A24U G42A the self-cleavage was 0.257.
Work on A23G U53G yielded a self-cleavage of 0.706.
Work on A24U G25U yielded a self-cleavage of 0.682.
For A24C A49G, the self-cleavage was 0.535.
In the case of G25A U67A, the self-cleavage is reported as 0.118.
Variant G25A A61G has a self-cleavage of 0.208.
A24C U70A showed a self-cleavage of 0.985.
G25C A35U gave a self-cleavage of 0.228.
Work on A24C A35C yielded a self-cleavage of 0.778.
With G25C G27C the self-cleavage was 0.171.
A23G C50U gave a self-cleavage of 0.43.
With A24U U63G the self-cleavage was 0.146.
In the case of A24U U63A, the self-cleavage is reported as 0.237.
With A23G A49G the self-cleavage was 0.426.
A23G A49C showed a self-cleavage of 0.159.
Variant A23G A28U has a self-cleavage of 0.417.
A23G G69A showed a self-cleavage of 0.369.
Work on A23G U58C yielded a self-cleavage of 0.847.
Variant A24C A61G has a self-cleavage of 0.156.
A24C A61U showed a self-cleavage of 0.189.
A24C A61C gave a self-cleavage of 0.139.
With A23G U63C the self-cleavage was 0.148.
Work on A23U C37A yielded a self-cleavage of 0.324.
In the case of A24U C65G, the self-cleavage is reported as 0.302.
A23U A59U showed a self-cleavage of 0.189.
Variant A23U A59C has a self-cleavage of 0.0742.
A24U A30U gave a self-cleavage of 0.168.
With A24U A30C the self-cleavage was 0.332.
Variant A24U A47U has a self-cleavage of 0.144.
For A23U A61U, the self-cleavage was 0.0982.
A24G G32A gave a self-cleavage of 0.14.
Work on A24G G32U yielded a self-cleavage of 0.0918.
A24G G32C showed a self-cleavage of 0.242.
For A24G A31G, the self-cleavage was 0.662.
For A24U G34A, the self-cleavage was 1.02.
For A24U G34C, the self-cleavage was 1.18.
A24U G34U gave a self-cleavage of 1.22.
A24G A28G gave a self-cleavage of 0.882.
Work on A24C C37A yielded a self-cleavage of 0.352.
Work on A24C G42A yielded a self-cleavage of 0.195.
With A24C G42C the self-cleavage was 0.342.
Work on A23U A36C yielded a self-cleavage of 0.596.
In the case of A23G G56A, the self-cleavage is reported as 0.186.
In the case of A24U A41C, the self-cleavage is reported as 1.1.
Work on A24U A41U yielded a self-cleavage of 1.17.
For A24U A39U, the self-cleavage was 0.38.
With G25A G54U the self-cleavage was 0.392.
For G25A G54A, the self-cleavage was 0.292.
G25A G54C showed a self-cleavage of 0.219.
A23U A49C showed a self-cleavage of 0.117.
A24C A39C gave a self-cleavage of 0.554.
In the case of A24U A43G, the self-cleavage is reported as 0.159.
For A23G A36C, the self-cleavage was 0.69.
For A24U G57A, the self-cleavage was 0.196.
In the case of G25C C48A, the self-cleavage is reported as 0.129.
G25C C48U gave a self-cleavage of 0.187.
For G25C C48G, the self-cleavage was 0.127.
Work on A24U U67A yielded a self-cleavage of 0.0716.
A23G A41G showed a self-cleavage of 0.678.
Variant G25A C38G has a self-cleavage of 0.252.
G25A C38A showed a self-cleavage of 0.173.
For A23U U62G, the self-cleavage was 0.171.
For A23U U62C, the self-cleavage was 0.247.
Variant A24C C50G has a self-cleavage of 0.326.
Work on G25C C46A yielded a self-cleavage of 0.129.
With A24C G51U the self-cleavage was 0.878.
Work on A23C U33A yielded a self-cleavage of 0.109.
Variant G25A G29U has a self-cleavage of 0.164.
For G25A G29C, the self-cleavage was 0.118.
For A23U G29U, the self-cleavage was 0.142.
G25C G29C showed a self-cleavage of 0.166.
For G25C G29U, the self-cleavage was 0.188.
Work on A23U C50U yielded a self-cleavage of 0.376.
A23G U60A gave a self-cleavage of 0.694.
In the case of G25C C50U, the self-cleavage is reported as 0.192.
Variant G25C A41C has a self-cleavage of 0.622.
G25C A41G showed a self-cleavage of 0.298.
In the case of A23G A61U, the self-cleavage is reported as 0.138.
In the case of G25C A44C, the self-cleavage is reported as 0.174.
A23U A41G gave a self-cleavage of 0.749.
With A24G G56U the self-cleavage was 0.122.
For A24G G56C, the self-cleavage was 0.14.
For A23U A45C, the self-cleavage was 0.111.
Work on A24C A44C yielded a self-cleavage of 0.0908.
G25C A47C gave a self-cleavage of 0.217.
Work on A24G U60A yielded a self-cleavage of 0.861.
For A24G U60G, the self-cleavage was 0.661.
In the case of A23C G69A, the self-cleavage is reported as 0.379.
In the case of A23C G69C, the self-cleavage is reported as 0.244.
A24U C46G gave a self-cleavage of 0.113.
A24U C46U gave a self-cleavage of 0.264.
A23G G25C showed a self-cleavage of 0.521.
G25C A26U showed a self-cleavage of 0.248.
Variant G25C A26C has a self-cleavage of 0.199.
In the case of A23G C65G, the self-cleavage is reported as 0.392.
With A23U A64C the self-cleavage was 0.221.
Variant A23U A64G has a self-cleavage of 0.474.
Work on A23U A64U yielded a self-cleavage of 0.178.
A24C C38A showed a self-cleavage of 0.228.
Variant G25C C37U has a self-cleavage of 0.502.
With A24C U62A the self-cleavage was 0.3.
A24C U62C showed a self-cleavage of 0.297.
In the case of G25A U62G, the self-cleavage is reported as 0.125.
Work on G25A A43U yielded a self-cleavage of 0.186.
In the case of G25A A43C, the self-cleavage is reported as 0.136.
In the case of A23G U70A, the self-cleavage is reported as 0.741.
A24U A71C showed a self-cleavage of 1.27.
G25C A39G showed a self-cleavage of 0.168.
A24G C46A gave a self-cleavage of 0.107.
In the case of A24G C46G, the self-cleavage is reported as 0.105.
In the case of A24C A36U, the self-cleavage is reported as 0.556.
Work on A24C A45U yielded a self-cleavage of 0.0791.
Variant A24G A41U has a self-cleavage of 1.05.
With A24U U62C the self-cleavage was 0.293.
Variant A24U U62A has a self-cleavage of 0.2.
G25A G51U showed a self-cleavage of 0.724.
For A23U U55A, the self-cleavage was 0.255.
With A23U U55G the self-cleavage was 0.448.
Work on G25A A39U yielded a self-cleavage of 0.285.
For G25A A39G, the self-cleavage was 0.192.
A24C G25C gave a self-cleavage of 0.315.
With A24C A43G the self-cleavage was 0.157.
A24C A43C showed a self-cleavage of 0.0956.
With A23U U70C the self-cleavage was 0.909.
Work on A23U C48A yielded a self-cleavage of 0.157.
Work on A23G A31U yielded a self-cleavage of 0.0848.
Work on A23U U60A yielded a self-cleavage of 0.819.
In the case of A24C A47U, the self-cleavage is reported as 0.0898.
In the case of G25A U52C, the self-cleavage is reported as 0.7.
Variant G25C C38A has a self-cleavage of 0.0929.
Variant A24C A71U has a self-cleavage of 0.696.
A23G A26U showed a self-cleavage of 0.842.
For A23U G40C, the self-cleavage was 0.1.
Variant A23U G40U has a self-cleavage of 0.134.
A24U U58A showed a self-cleavage of 0.724.
For A24U U58C, the self-cleavage was 0.834.
With A24U U58G the self-cleavage was 0.483.
Work on G25A G42C yielded a self-cleavage of 0.182.
Work on A24C A28G yielded a self-cleavage of 1.13.
In the case of A24C A28U, the self-cleavage is reported as 0.592.
With A24U A35G the self-cleavage was 0.751.
A23U C65G gave a self-cleavage of 0.159.
A24G U63G showed a self-cleavage of 0.154.
Work on A24G A64G yielded a self-cleavage of 0.533.
